Consider 3 molecules from paper PMC2653429.

B1: 3Cm (dsDNA)
DNA 1: GATCCCTGGCACCCTTCCTGATC
DNA 2: GATCAGGAAGGGTGCCAGGGATC
B2: (1+2)m (dsDNA)
DNA 1: GATCTTAGGTAGCCCCCGGGACTGGCACAGGCACCTTGATC
DNA 2: GATCAAGGTGCCTGTGCCAGTCCCGGGGGCTACCTAAGATC
B3: 4Cm (dsDNA)
DNA 1: GATCTTGCCAAGCTCCACGATC
DNA 2: GATCGTGGAGCTTGGCAAGATC

Sequence of GST-Dpn bHLH (Q26263 1-108): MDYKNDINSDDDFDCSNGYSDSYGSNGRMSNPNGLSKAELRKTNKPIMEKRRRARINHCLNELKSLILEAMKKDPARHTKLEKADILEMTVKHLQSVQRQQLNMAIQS

The series concerns the target GST-Dpn bHLH (UniProt Q26263 1-108). Nature of the series: EMSA. (In general: Mobility shift assays separate free from complexed probe on a gel.)
With B1, the binding result is “no binding”.

As to B2, the binding result is on record as “no binding”.

For the molecule B3, the binding result is “no binding”.
